Reference: patent US20070009972A1, “Epidermal growth factor receptor polypeptides and antibodies” (priority 2005, published 2007)
Substitutions are numbered along the chain they refer to. One block for each molecule: values may come before it. *: point of attachment. Biotin = O=C1N[C@H]2[C@H](CS[C@H]2CCCCC(=O)*)N1; Ahx = NCCCCCC(=O)O

Legend:
EGFR = biological target: T1, EGFR (Homo sapiens, UniProt P00533); test: Cyclic polypeptide inhibition of EGFR phosphorylation in model HMEC cell system; format: cell-based; conditions: biotinylated cyclic polypeptide
T1 construct: tested them in a model HMEC cell system; endogenous in cells; host or cells: 184A1 human mammary epithelial cells (HMECs)
Text: We selected amino acid sequences corresponding to fragments of Domain II and Domain IV of EGFR. The sequence of each polypeptide is shown in the first column of Table 1. The polypeptides were chosen based on their positions on the crystal structures of monomeric and dimeric EGFR (Burgess et al., Mol. Cell 12:541-552, 2003). Although Domain IV of EGFR is not resolved in the dimer crystal structure, it is believed that portions of Domain IV come into contact upon dimerization. […] We generated biotinylated cyclic polypeptides that included each sequence and tested them in a model HMEC cell system. The sequences of the biotinylated cyclic polypeptides are shown in the third column of Table 1. […] For the LYNPTTYQMD polypeptide, the different results obtained from polypeptide and polyclonal antisera inhibition could be due to differences in the quantitative details of the assays, or the polypeptide could have a lower affinity for the receptor than the polyclonal antisera does.

[1] = biological target: T2, Biotin-GCAHYIDGPHCG-CONH2 (SEQ ID NO:9) (not fully specified (bridges); printed as Biotin-GCAHYIDGPHCG-; also: cyclic (type of ring not given here)); test: yeast surface display screen of naive human library against the peptide (1 round MACS, 3 rounds FACS); clone isolated as specific binder
T2 construct: Biotinylated cyclic polypeptide; also called EGFR Domain IV (558-567) peptide
T2 peptide: Biotin-GCAHYIDGPHCG-NH2

[2] = biological target: T3, Biotin-GCGLYNPTTYQMDGCG-CONH2 (SEQ ID NO:7) (not fully specified (bridges); printed as Biotin-GCGLYNPTTYQMDGCG-; also: cyclic (type of ring not given here)); test: as above
T3 construct: Biotinylated cyclic polypeptide tested on HMECs; also called EGFR Domain II (245-254) peptide
T3 peptide: Biotin-GCGLYNPTTYQMDGCG-NH2

[3] = biological target: T4, Biotin-Aha-CMGENNTG-CONH2 (SEQ ID NO:10) (also: called cyclic, ring not described); test: as above
T4 construct: also called EGFR Domain IV (576-581) peptide
T4 peptide: {Biotin-Ahx}-CMGENNTG-NH2

[4] = biological target: T5, Biotin-GCRNVSRGRECG-CONH2 (SEQ ID NO:8) (not fully specified (bridges); printed as Biotin-GCRNVSRGRECG-; also: cyclic (ring type and places not given here)); test: as above
T5 construct: Biotinylated cyclic polypeptide; also called EGFR Domain IV (502-511) peptide
T5 peptide: Biotin-GCRNVSRGRECG-NH2

[5] = biological target: T6, Biotin-GCLVWKYADAGCG-CONH2 (SEQ ID NO:11) (not fully specified (bridges); printed as Biotin-GCLVWKYADAGCG-; also: cyclic (ring type and places not given here)); test: as above
T6 construct: Biotinylated cyclic polypeptide; also called EGFR Domain IV (582-590) peptide
T6 peptide: Biotin-GCLVWKYADAGCG-NH2

Molecule: LYNPTTYQMD [Biotin-GCGLYNPTTYQMDGCG-CONH2]
Peptide Inhibition (EGFR): No

Molecule: CRNVSRGREC [Biotin-GCRNVSRGRECG-CONH2]
Peptide Inhibition (EGFR): Yes

Molecule: CAHYIDGPHC [Biotin-GCAHYIDGPHCG-CONH2]
Peptide Inhibition (EGFR): Yes

Molecule: LVWKYADAG [Biotin-GCLVWKYADAGCG-CONH2]
Peptide Inhibition (EGFR): Yes

B1: SEQ ID NO 27 (scFv)
scFv: QITLKESGPTLVKPTQTLTLTCTFSGFSLSTNGVGVGWIRQPPGKALEWLALIYWNDDKRYSPSLKRRLTITKDTSKNQVVLTMTNMDPVDTATYYCAHRLLDSGYILPPTFDYWGQGTLVTVSSGILGSGGGGSGGGGSGGGGSEIVLTQSPGTLSLSPGERATLSCRASQSVNSGYLAWYQQKPGQAPRLLISAASSRATGIPDRFSGSGSGTDFTLTISRLEPEDFAVYYCQRYDTSRGFTFGPGTKVDIKSGF
binding result [1]: binds

B2: SEQ ID NO 18 (other)
VH: QVQLVQSEGGVVQPGRSLRLSCAASGFTFSSYAMHWVRQAPGKGLEWVAVISYDGSNKYYADSVKGRFTISRDNSKNTLYLQMNSLRAEDTAVYYCARDEGYYGSGCIDYWGQGTLVTVSSGILGSGGGSGGGGSGGGGLQEF
binding result [2]: binds

B3: SEQ ID NO 36 (other)
VH: QVQLQESGPGLVKPSETLSLTCTFSGGSIRSSSDYWGWVRQPPGKGLEWIGSISSSGSTYYNPSLKSRVTISVDTSRNQFSLRLSSVTAADTAIYYCARYNHYWYFDLWGRGTLVTVSSGILGSGGGSGGGGSGGGGSKRHSRSLQHSSQRLQETKSTSPAKPAKTLMMI
notes: also called VH clone isolated against MGENNT
binding result [3]: binds

B4: SEQ ID NO 37 (other)
VH: QVQLQESGPGLVKPSETLSLTCTVSGGSISNSDYYWGWIRQPPGKGLRWIGSINYYGTTYYNPSLKSRVAMSVDTSKNQFSLKLSSVTAADTAVYYCARRGANSWFFDLWGRGTLVTVSSGILGSGGGSGGGGSGGGGLQEF
notes: as for B3
binding result [3]: binds

B5: SEQ ID NO 21 (other)
VH: QVQLQQWGPGLLKPSETLSLTCGVSGGSLSGYYWSWIRQSPGKELEWIGEINQGGSTNYNPSLRSRVTISVDTSKKQLSLKVNSVTASDTAVYYCARETFRGSNCFDSWGQGTLVTVSSGILGSGGGIGGGGSGGGGLQEF
binding result [4]: binds

B9: SEQ ID NO 38 (other)
VH: QITLKESGPTVVKPTQTLTLTCTFSGFSLSTSGVGVGWIRQPPGKALEWLALISWDDDKRYSPSLKSRLTITKDTSKNQVVLTMTNMDPVDTATYFCAHLNNFVDAIELRTGWCFDVWGRGTLVTVSGILGSGGGGSGGGGSGGGVLKLC
binding result [5]: binds

Further lines, results first:

binding result [1]: binds
B6: SEQ ID NO 28 (scFv)
scFv: QVQLQQSGPGLVKPSQTLSLTCAISGDSVSSNSAAWNWIRQSPSRGLEWLGRTYYRSKWYNEYAVSVKSRITINPDTSKNHFSLQLNSVTPEDTAVYYCAREIVGTPFDYWGQGTLVTVSSGILGSGGGGSGGGGSGGGGSDIRVTQSPSSLSASVGDRVTITCRTSQSASKYVNWYQQKPGKVPKLLIYAASSLQSGVPSRFSGSGSGTHFTLSISNLQPGDMGTYYCQQGYGTPLTFGGGTKLEIKSGF

binding result [1]: binds
B7: SEQ ID NO 35 (scFv)
scFv: QVQLVESEGRLVKPGGSLRLSCVASGMTFNNAWMSWVRQAPGKGLEWVGRIRSESNGGTTDYAAPGKGRFTISRDDSKNTLYLQMNSLQIEDTAVYYCATDRGYSNSGNYYRHYWGQGTLVTVSSGILGSGGGGSGGGGSGGGGSDIRLTQSPSSLSASVGDRVTITCQASQDISNYLNWYQQKPGKAPKLLIYDASNLETGVPPRFSGSGSGTAFTFTISSLQPEDFATYYCQQYDNLPHTFGPGTKVDIKSGILEQKLISEEDL

binding result [2]: binds
B8: SEQ ID NO 19 (other)
VH: QVQLVQSEGGVVQPGRSLRLSCAAPGFTFSSYAMHWVRQAPGKGLEWVAVISYDGSNKYYADSVKGRFTISRDNSKNTLYLQMNSLRAEDTAVYYCARDEGYYGSGCIDYWGQGTLVTVSSGILGSGGGGSGGGGSGGGGLQEF

binding result [5]: binds
B10: SEQ ID NO 39 (other)
VH: B9 VH with N101I, C150R

binding result [4]: binds
B11: SEQ ID NO 20 (other)
VH: QVQLQQSGPGLVKPSQTLSLTCDISGDSVSSDSAAWNWIRLSPSRGLEWLGRTYYWSKWYTDYAVSVKSRITINPDTSKNQFSLQLNSVTPEDTAVYFCARERYCSSTSCYLDAFDIWGQGTMVTVSGILGSGGGGSGGGGSGGGGLQEF
